# ± gives the uncertainty stated by the source.
# Assay: abundance fitness (aPCA) (normalised: wild type 0, dead -1); higher = more abundant; growth selection in yeast, the domain comes from the species named
# Conditions: Saccharomyces cerevisiae (strain ATCC 204508 / S288c)
row,Substance,abundance fitness
1,"E3 ubiquitin-protein ligase RSP5 A347C, P39940",0.08 ± 0.095
2,"E3 ubiquitin-protein ligase RSP5 A347D, P39940",-0.025 ± 0.084
3,"E3 ubiquitin-protein ligase RSP5 A347E, P39940",-0.034 ± 0.056
4,"E3 ubiquitin-protein ligase RSP5 A347F, P39940",-0.067 ± 0.19
5,"E3 ubiquitin-protein ligase RSP5 A347G, P39940",-0.043 ± 0.047
6,"E3 ubiquitin-protein ligase RSP5 A347H, P39940",-0.048 ± 0.056
7,"E3 ubiquitin-protein ligase RSP5 A347K, P39940",0.008 ± 0.053
8,"E3 ubiquitin-protein ligase RSP5 A347L, P39940",-0.044 ± 0.045
9,"E3 ubiquitin-protein ligase RSP5 A347M, P39940",0.089 ± 0.064
10,"E3 ubiquitin-protein ligase RSP5 A347N, P39940",-0.034 ± 0.059
11,"E3 ubiquitin-protein ligase RSP5 A347P, P39940",-0.115 ± 0.064
12,"E3 ubiquitin-protein ligase RSP5 A347Q, P39940",-0.063 ± 0.055
13,"E3 ubiquitin-protein ligase RSP5 A347R, P39940",-0.031 ± 0.045
14,"E3 ubiquitin-protein ligase RSP5 A347V, P39940",-0.044 ± 0.046
15,"E3 ubiquitin-protein ligase RSP5 A347W, P39940",-0.316 ± 0.047
16,"E3 ubiquitin-protein ligase RSP5 A347Y, P39940",-0.128 ± 0.063
17,"E3 ubiquitin-protein ligase RSP5 D351A, P39940",-0.731 ± 0.053
18,"E3 ubiquitin-protein ligase RSP5 D351C, P39940",-0.256 ± 0.067
19,"E3 ubiquitin-protein ligase RSP5 D351E, P39940",-0.488 ± 0.052
20,"E3 ubiquitin-protein ligase RSP5 D351G, P39940",-0.89 ± 0.046
21,"E3 ubiquitin-protein ligase RSP5 D351H, P39940",-0.574 ± 0.21
22,"E3 ubiquitin-protein ligase RSP5 D351K, P39940",-0.748 ± 0.084
23,"E3 ubiquitin-protein ligase RSP5 D351L, P39940",-1.08 ± 0.059
24,"E3 ubiquitin-protein ligase RSP5 D351M, P39940",-0.772 ± 0.13
25,"E3 ubiquitin-protein ligase RSP5 D351P, P39940",-1.24 ± 0.15
26,"E3 ubiquitin-protein ligase RSP5 D351Q, P39940",-0.612 ± 0.21

row,Substance,abundance fitness
1,"E3 ubiquitin-protein ligase RSP5 D351R, P39940",-0.864 ± 0.05
2,"E3 ubiquitin-protein ligase RSP5 D351S, P39940",-0.584 ± 0.057
3,"E3 ubiquitin-protein ligase RSP5 D351T, P39940",-0.966 ± 0.073
4,"E3 ubiquitin-protein ligase RSP5 D351V, P39940",-1.24 ± 0.068
5,"E3 ubiquitin-protein ligase RSP5 D351W, P39940",-1.28 ± 0.097
6,"E3 ubiquitin-protein ligase RSP5 D361A, P39940",-0.269 ± 0.053
7,"E3 ubiquitin-protein ligase RSP5 D361C, P39940",-0.183 ± 0.1
8,"E3 ubiquitin-protein ligase RSP5 D361E, P39940",-0.266 ± 0.053
9,"E3 ubiquitin-protein ligase RSP5 D361G, P39940",-0.534 ± 0.047
10,"E3 ubiquitin-protein ligase RSP5 D361I, P39940",-0.632 ± 0.15
11,"E3 ubiquitin-protein ligase RSP5 D361K, P39940",-0.25 ± 0.06
12,"E3 ubiquitin-protein ligase RSP5 D361L, P39940",-0.641 ± 0.056
13,"E3 ubiquitin-protein ligase RSP5 D361N, P39940",-0.304 ± 0.085
14,"E3 ubiquitin-protein ligase RSP5 D361P, P39940",-0.516 ± 0.12
15,"E3 ubiquitin-protein ligase RSP5 D361Q, P39940",-0.305 ± 0.086
16,"E3 ubiquitin-protein ligase RSP5 D361S, P39940",-0.409 ± 0.054
17,"E3 ubiquitin-protein ligase RSP5 D361T, P39940",-0.562 ± 0.065
18,"E3 ubiquitin-protein ligase RSP5 D361V, P39940",-0.607 ± 0.043
19,"E3 ubiquitin-protein ligase RSP5 D361Y, P39940",-0.594 ± 0.062
20,"E3 ubiquitin-protein ligase RSP5 E332A, P39940",0.03 ± 0.051
21,"E3 ubiquitin-protein ligase RSP5 E332C, P39940",-0.116 ± 0.08
22,"E3 ubiquitin-protein ligase RSP5 E332D, P39940",0.038 ± 0.074
23,"E3 ubiquitin-protein ligase RSP5 E332F, P39940",-0.165 ± 0.12
24,"E3 ubiquitin-protein ligase RSP5 E332G, P39940",-0.066 ± 0.046
25,"E3 ubiquitin-protein ligase RSP5 E332H, P39940",-0.551 ± 0.13
26,"E3 ubiquitin-protein ligase RSP5 E332I, P39940",-0.225 ± 0.087

row,Substance,abundance fitness
1,"E3 ubiquitin-protein ligase RSP5 E332K, P39940",-0.046 ± 0.064
2,"E3 ubiquitin-protein ligase RSP5 E332L, P39940",-0.459 ± 0.051
3,"E3 ubiquitin-protein ligase RSP5 E332M, P39940",-0.093 ± 0.069
4,"E3 ubiquitin-protein ligase RSP5 E332P, P39940",-0.128 ± 0.057
5,"E3 ubiquitin-protein ligase RSP5 E332Q, P39940",-0.359 ± 0.061
6,"E3 ubiquitin-protein ligase RSP5 E332R, P39940",-0.36 ± 0.043
7,"E3 ubiquitin-protein ligase RSP5 E332S, P39940",-0.179 ± 0.053
8,"E3 ubiquitin-protein ligase RSP5 E332T, P39940",-0.14 ± 0.069
9,"E3 ubiquitin-protein ligase RSP5 E332V, P39940",-0.07 ± 0.047
10,"E3 ubiquitin-protein ligase RSP5 E332W, P39940",-0.493 ± 0.046
11,"E3 ubiquitin-protein ligase RSP5 E332Y, P39940",-0.184 ± 0.066
12,"E3 ubiquitin-protein ligase RSP5 E338A, P39940",-0.333 ± 0.056
13,"E3 ubiquitin-protein ligase RSP5 E338C, P39940",-0.476 ± 0.16
14,"E3 ubiquitin-protein ligase RSP5 E338D, P39940",-0.022 ± 0.13
15,"E3 ubiquitin-protein ligase RSP5 E338F, P39940",-0.73 ± 0.14
16,"E3 ubiquitin-protein ligase RSP5 E338G, P39940",-0.454 ± 0.045
17,"E3 ubiquitin-protein ligase RSP5 E338H, P39940",-0.349 ± 0.1
18,"E3 ubiquitin-protein ligase RSP5 E338K, P39940",-0.463 ± 0.049
19,"E3 ubiquitin-protein ligase RSP5 E338L, P39940",-0.499 ± 0.044
20,"E3 ubiquitin-protein ligase RSP5 E338M, P39940",-0.402 ± 0.047
21,"E3 ubiquitin-protein ligase RSP5 E338N, P39940",-0.501 ± 0.09
22,"E3 ubiquitin-protein ligase RSP5 E338P, P39940",-0.874 ± 0.083
23,"E3 ubiquitin-protein ligase RSP5 E338Q, P39940",-0.027 ± 0.065
24,"E3 ubiquitin-protein ligase RSP5 E338R, P39940",-0.626 ± 0.045
25,"E3 ubiquitin-protein ligase RSP5 E338S, P39940",-0.19 ± 0.046
26,"E3 ubiquitin-protein ligase RSP5 E338V, P39940",-0.278 ± 0.053

row,Substance,abundance fitness
1,"E3 ubiquitin-protein ligase RSP5 E338W, P39940",-0.978 ± 0.11
2,"E3 ubiquitin-protein ligase RSP5 E338Y, P39940",-0.632 ± 0.075
3,"E3 ubiquitin-protein ligase RSP5 E344A, P39940",-0.144 ± 0.045
4,"E3 ubiquitin-protein ligase RSP5 E344C, P39940",-0.264 ± 0.097
5,"E3 ubiquitin-protein ligase RSP5 E344D, P39940",0.149 ± 0.087
6,"E3 ubiquitin-protein ligase RSP5 E344F, P39940",-0.309 ± 0.072
7,"E3 ubiquitin-protein ligase RSP5 E344G, P39940",-0.038 ± 0.045
8,"E3 ubiquitin-protein ligase RSP5 E344H, P39940",0.116 ± 0.16
9,"E3 ubiquitin-protein ligase RSP5 E344I, P39940",-0.215 ± 0.091
10,"E3 ubiquitin-protein ligase RSP5 E344K, P39940",-0.222 ± 0.063
11,"E3 ubiquitin-protein ligase RSP5 E344L, P39940",-0.31 ± 0.047
12,"E3 ubiquitin-protein ligase RSP5 E344M, P39940",-0.103 ± 0.06
13,"E3 ubiquitin-protein ligase RSP5 E344N, P39940",-0.032 ± 0.081
14,"E3 ubiquitin-protein ligase RSP5 E344P, P39940",-0.428 ± 0.071
15,"E3 ubiquitin-protein ligase RSP5 E344Q, P39940",-0.081 ± 0.053
16,"E3 ubiquitin-protein ligase RSP5 E344R, P39940",-0.256 ± 0.047
17,"E3 ubiquitin-protein ligase RSP5 E344S, P39940",-0.168 ± 0.048
18,"E3 ubiquitin-protein ligase RSP5 E344T, P39940",-0.088 ± 0.051
19,"E3 ubiquitin-protein ligase RSP5 E344V, P39940",-0.308 ± 0.054
20,"E3 ubiquitin-protein ligase RSP5 E344W, P39940",-0.338 ± 0.046
21,"E3 ubiquitin-protein ligase RSP5 F341A, P39940",-0.072 ± 0.049
22,"E3 ubiquitin-protein ligase RSP5 F341C, P39940",0.051 ± 0.069
23,"E3 ubiquitin-protein ligase RSP5 F341E, P39940",0.068 ± 0.064
24,"E3 ubiquitin-protein ligase RSP5 F341G, P39940",-0.284 ± 0.044
25,"E3 ubiquitin-protein ligase RSP5 F341I, P39940",-0.027 ± 0.092

# — the Human Domainome abundance scans (Beltran et al. 2025)
